# Measurements as given in the supplement of paper PMC9112550, “Optimization of the antimicrobial peptide Bac7 by deep mutational scanning” (BMC Biology, 2022).
# Test system: Escherichia coli TOP10
# Experiment: shrunken log2 fold change of peptide-encoding DNA abundance (4.5 h post-induction vs induction); higher = less antimicrobial activity (less host growth inhibition)
# Conditions: time post-induction: 4.5 h; library: site-saturation at positions 5, 18, 19, 20
# 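Further: peptides expressed intracellularly from a pBAD plasmid library in pooled LB shake-flask culture, induced with 0.3% L-arabinose, DNA abundance read by NGS, three biological replicates, DESeq2 with apeglm shrinkage.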
row,Sequence,shrunken log2 fold change
1,RRIRRRPPRLPRPRPRPAHRPRP,-0.059
2,RRIRPRPPRLPRPRPRPDLFPRP,0.0947
3,RRIRERPPRLPRPRPRPWVTPRP,-0.0915
4,RRIRIRPPRLPRPRPRPVRPPRP,0.664
5,RRIRQRPPRLPRPRPRPNTGPRP,-0.766
6,RRIRIRPPRLPRPRPRPIETPRP,-0.0467
7,RRIRWRPPRLPRPRPRPQDNPRP,-0.421
8,RRIRKRPPRLPRPRPRPICEPRP,0.115
9,RRIRGRPPRLPRPRPRPRPMPRP,1.51
10,RRIRCRPPRLPRPRPRPACDPRP,0.389
11,RRIRYRPPRLPRPRPRPHYCPRP,-0.403
12,RRIRRRPPRLPRPRPRPELEPRP,1.16
13,RRIRFRPPRLPRPRPRPIPPPRP,1.09
14,RRIRARPPRLPRPRPRPTEDPRP,0.269
15,RRIRKRPPRLPRPRPRPEPQPRP,0.637
16,RRIRNRPPRLPRPRPRPGWVPRP,0.282
17,RRIRARPPRLPRPRPRPLNMPRP,-0.502
18,RRIRNRPPRLPRPRPRPNAPPRP,-0.194
19,RRIRWRPPRLPRPRPRPTRNPRP,-0.0437
20,RRIRNRPPRLPRPRPRPRCSPRP,0.019
21,RRIRARPPRLPRPRPRPECNPRP,0.807
22,RRIRLRPPRLPRPRPRPVMMPRP,-0.288
23,RRIRWRPPRLPRPRPRPQNLPRP,-0.103
24,RRIRDRPPRLPRPRPRPDHCPRP,-0.00174
25,RRIRMRPPRLPRPRPRPSSFPRP,-0.0557

row,Sequence,shrunken log2 fold change
1,RRIRWRPPRLPRPRPRPTLIPRP,0.0335
2,RRIRRRPPRLPRPRPRPFINPRP,-0.211
3,RRIRARPPRLPRPRPRPYHVPRP,-0.963
4,RRIRHRPPRLPRPRPRPNFLPRP,-0.322
5,RRIRARPPRLPRPRPRPRRHPRP,1.65
6,RRIRFRPPRLPRPRPRPDGAPRP,-0.0432
7,RRIRQRPPRLPRPRPRPLPMPRP,0.0747
8,RRIRRRPPRLPRPRPRPVANPRP,0.207
9,RRIRLRPPRLPRPRPRPLHYPRP,-0.00799
10,RRIRHRPPRLPRPRPRPLDFPRP,-0.342
11,RRIRNRPPRLPRPRPRPIFVPRP,-0.0459
12,RRIRKRPPRLPRPRPRPLVEPRP,0.734
13,RRIRIRPPRLPRPRPRPCQVPRP,-0.0176
14,RRIRGRPPRLPRPRPRPEYYPRP,0.166
15,RRIRKRPPRLPRPRPRPQHHPRP,-0.201
16,RRIRHRPPRLPRPRPRPLSDPRP,-0.0615
17,RRIRFRPPRLPRPRPRPRFVPRP,0.181
18,RRIRVRPPRLPRPRPRPVQVPRP,-0.269
19,RRIRCRPPRLPRPRPRPPDAPRP,0.354
20,RRIRSRPPRLPRPRPRPMFEPRP,-0.0573
21,RRIRFRPPRLPRPRPRPAPWPRP,0.592
22,RRIRLRPPRLPRPRPRPEHNPRP,-0.204
23,RRIRYRPPRLPRPRPRPSGCPRP,-0.264
24,RRIRLRPPRLPRPRPRPVAQPRP,0.391
25,RRIRKRPPRLPRPRPRPNDCPRP,-0.0159

row,Sequence,shrunken log2 fold change
1,RRIRNRPPRLPRPRPRPLCYPRP,-0.781
2,RRIRNRPPRLPRPRPRPSDTPRP,-0.00711
3,RRIRMRPPRLPRPRPRPKSTPRP,1.44
4,RRIRMRPPRLPRPRPRPPVIPRP,0.312
5,RRIRERPPRLPRPRPRPFTMPRP,-0.585
6,RRIRERPPRLPRPRPRPRLGPRP,0.157
7,RRIRPRPPRLPRPRPRPVRLPRP,0.238
8,RRIRTRPPRLPRPRPRPCYSPRP,-0.0481
9,RRIRFRPPRLPRPRPRPDHQPRP,-0.147
10,RRIRIRPPRLPRPRPRPMSMPRP,-0.281
11,RRIRNRPPRLPRPRPRPKIDPRP,-0.626
12,RRIRRRPPRLPRPRPRPCHPPRP,-0.0611
13,RRIRHRPPRLPRPRPRPLNIPRP,-0.386
14,RRIRIRPPRLPRPRPRPEHQPRP,-0.0287
15,RRIRARPPRLPRPRPRPYDIPRP,0.00126
16,RRIRMRPPRLPRPRPRPETCPRP,1.67
17,RRIRNRPPRLPRPRPRPPLFPRP,0.00419
18,RRIRWRPPRLPRPRPRPHSAPRP,-0.0726
19,RRIRTRPPRLPRPRPRPICSPRP,-0.0969
20,RRIRKRPPRLPRPRPRPWTFPRP,0.489
21,RRIRPRPPRLPRPRPRPCVRPRP,0.14
22,RRIRRRPPRLPRPRPRPYSHPRP,-0.528
23,RRIRIRPPRLPRPRPRPIATPRP,-0.471
24,RRIRHRPPRLPRPRPRPEVNPRP,0.062
25,RRIRMRPPRLPRPRPRPACTPRP,0.623

row,Sequence,shrunken log2 fold change
1,RRIRGRPPRLPRPRPRPLFSPRP,0.113
2,RRIRPRPPRLPRPRPRPQSGPRP,0.259
3,RRIRQRPPRLPRPRPRPLQEPRP,-0.129
4,RRIRERPPRLPRPRPRPQMGPRP,-0.115
5,RRIRHRPPRLPRPRPRPSFNPRP,-0.583
6,RRIRYRPPRLPRPRPRPHMKPRP,-0.489
7,RRIRVRPPRLPRPRPRPKVMPRP,-0.12
8,RRIRKRPPRLPRPRPRPMGRPRP,-0.0264
9,RRIRLRPPRLPRPRPRPVPVPRP,-0.0404
10,RRIRGRPPRLPRPRPRPQKHPRP,0.982
11,RRIRERPPRLPRPRPRPLAVPRP,-0.0594
12,RRIRLRPPRLPRPRPRPAWSPRP,0.103
13,RRIRTRPPRLPRPRPRPQNIPRP,-0.587
14,RRIRQRPPRLPRPRPRPGKPPRP,0.12
15,RRIRRRPPRLPRPRPRPNENPRP,0.256
16,RRIRFRPPRLPRPRPRPRPDPRP,0.282
17,RRIRDRPPRLPRPRPRPTDYPRP,-0.0921
18,RRIRTRPPRLPRPRPRPENCPRP,0.072
19,RRIRFRPPRLPRPRPRPMTPPRP,-0.202
20,RRIRFRPPRLPRPRPRPIGSPRP,-0.241
21,RRIRLRPPRLPRPRPRPMQEPRP,0.244
22,RRIRNRPPRLPRPRPRPQVGPRP,0.00312
23,RRIRIRPPRLPRPRPRPFSLPRP,-1.26
24,RRIRMRPPRLPRPRPRPMIHPRP,-0.106
25,RRIRNRPPRLPRPRPRPPPTPRP,0.867

row,Sequence,shrunken log2 fold change
1,RRIRSRPPRLPRPRPRPIELPRP,-0.122
2,RRIRNRPPRLPRPRPRPTPQPRP,0.232
3,RRIRARPPRLPRPRPRPKQKPRP,0.529
4,RRIRGRPPRLPRPRPRPDREPRP,0.34
5,RRIRFRPPRLPRPRPRPVGAPRP,0.472
6,RRIRPRPPRLPRPRPRPAISPRP,-0.103
7,RRIRLRPPRLPRPRPRPYYAPRP,-0.484
8,RRIRIRPPRLPRPRPRPWFTPRP,-0.563
9,RRIRSRPPRLPRPRPRPLQHPRP,-0.00742
10,RRIRRRPPRLPRPRPRPQAFPRP,0.0653
11,RRIRHRPPRLPRPRPRPTWDPRP,0.0552
12,RRIRRRPPRLPRPRPRPPVAPRP,0.769
13,RRIRCRPPRLPRPRPRPRQPPRP,0.249
14,RRIRPRPPRLPRPRPRPIRKPRP,0.0224
15,RRIRYRPPRLPRPRPRPHHWPRP,-0.892
16,RRIRDRPPRLPRPRPRPPEHPRP,-0.0245
17,RRIRHRPPRLPRPRPRPQWMPRP,0.0263
18,RRIRDRPPRLPRPRPRPDGIPRP,-0.0113
19,RRIRSRPPRLPRPRPRPGYEPRP,-0.157
20,RRIRMRPPRLPRPRPRPSDDPRP,1.89
21,RRIRARPPRLPRPRPRPLKTPRP,0.219
22,RRIRFRPPRLPRPRPRPLNEPRP,-0.226
23,RRIRHRPPRLPRPRPRPKITPRP,-0.913
24,RRIRQRPPRLPRPRPRPLCGPRP,0.0478
25,RRIRDRPPRLPRPRPRPAKDPRP,-0.0015

row,Sequence,shrunken log2 fold change
1,RRIRCRPPRLPRPRPRPRGFPRP,0.249
2,RRIRMRPPRLPRPRPRPMIEPRP,0.17
3,RRIRTRPPRLPRPRPRPEVKPRP,0.174
4,RRIRRRPPRLPRPRPRPFWIPRP,0.0724
5,RRIRKRPPRLPRPRPRPQFTPRP,-0.0285
6,RRIRARPPRLPRPRPRPAIHPRP,-0.223
7,RRIRSRPPRLPRPRPRPHQRPRP,-0.249
8,RRIRQRPPRLPRPRPRPTQEPRP,0.124
9,RRIRIRPPRLPRPRPRPCVVPRP,-0.00586
10,RRIRWRPPRLPRPRPRPYDEPRP,-0.114
11,RRIRMRPPRLPRPRPRPYVEPRP,-0.133
12,RRIRHRPPRLPRPRPRPHNRPRP,-0.0976
13,RRIRLRPPRLPRPRPRPPWGPRP,0.203
14,RRIRVRPPRLPRPRPRPKFAPRP,0.0713
15,RRIRARPPRLPRPRPRPICRPRP,0.349
16,RRIRQRPPRLPRPRPRPILLPRP,-0.0814
17,RRIRERPPRLPRPRPRPAAYPRP,-0.0475
18,RRIRCRPPRLPRPRPRPDFMPRP,-0.163
19,RRIRQRPPRLPRPRPRPASWPRP,0.00959
20,RRIRPRPPRLPRPRPRPPGNPRP,0.105
21,RRIRPRPPRLPRPRPRPDCVPRP,-0.0187
22,RRIRGRPPRLPRPRPRPKDVPRP,-0.0336
23,RRIRLRPPRLPRPRPRPATPPRP,1.05
24,RRIRRRPPRLPRPRPRPTSMPRP,0.263
25,RRIRTRPPRLPRPRPRPYHAPRP,-0.236
